{"source": "paper PMC8219829", "target": "protective antigen PA63 heptameric pore (PA_(pore)) (Bacillus anthracis)", "assay": "cryo-EM structure"}
{"substance": "protective antigen PA63 heptameric pore (PA_(pore)) (natural protein)", "values": [{"measurement": "stoichiometry N", "result": 7}]}
